Data taken from publication PMC4242682, “The Cpn10(1) Co-Chaperonin of A. thaliana Functions Only as a Hetero-Oligomer with Cpn20” (PLoS ONE, 2014).
Blank lines part the entries; values can stand above or below the binder they belong to.

B1: Cpn20 co-chaperonin of A. thaliana (natural protein, UniProt O65282 51-253, looked up)
chain: AASVVAPKYTSIKPLGDRVLVKIKEAEEKTLGGILLPSTAQSKPQGGEVVAVGEGRTIGKNKIDITVPTGAQIIYSKYAGTEVEFNDVKHLILKEDDIVGILETEDIKDLKPLNDRVFIKVAEAEEKTAGGLLLTETTKEKPSIGTVIAVGPGSLDEEGKITPLPVSTGSTVLYSKYAGNDFKGKDGSNYIALRASDVMAILS
notes: Cpn20, A. thaliana chloroplast co-chaperonin of two Cpn10-like domains joined head-to-tail, At5g20720

Legend:
[1] = biological target: the molecule itself; assay: native gel or EMSA; co-chaperonins at 100 µM (protomer) mixed at various ratios, 5 min at room temperature, 6% native acrylamide gel; no Cpn60 or ATP
[2] = biological target: T1, Cpn60β3 (A. thaliana, UniProt P21240 55-600); assay: SEC; reconstitution of 150 µM Cpn60α2 and 100 µM Cpn60β3 with 50 µM mt-cpn10, 5 mM ATP, 50 mM Tris-HCl pH 8, 300 mM NaCl, 10 mM MgCl2, 16 mM KCl, 2 mM DTT, 1 h 30°C; oligomers separated from monomers on Superdex 200 at room temperature; conditions: both partners purified
T1 construct: Cpn60β3, A. thaliana chloroplast chaperonin β subunit, At1g55490
T1 sequence (P21240 55-600): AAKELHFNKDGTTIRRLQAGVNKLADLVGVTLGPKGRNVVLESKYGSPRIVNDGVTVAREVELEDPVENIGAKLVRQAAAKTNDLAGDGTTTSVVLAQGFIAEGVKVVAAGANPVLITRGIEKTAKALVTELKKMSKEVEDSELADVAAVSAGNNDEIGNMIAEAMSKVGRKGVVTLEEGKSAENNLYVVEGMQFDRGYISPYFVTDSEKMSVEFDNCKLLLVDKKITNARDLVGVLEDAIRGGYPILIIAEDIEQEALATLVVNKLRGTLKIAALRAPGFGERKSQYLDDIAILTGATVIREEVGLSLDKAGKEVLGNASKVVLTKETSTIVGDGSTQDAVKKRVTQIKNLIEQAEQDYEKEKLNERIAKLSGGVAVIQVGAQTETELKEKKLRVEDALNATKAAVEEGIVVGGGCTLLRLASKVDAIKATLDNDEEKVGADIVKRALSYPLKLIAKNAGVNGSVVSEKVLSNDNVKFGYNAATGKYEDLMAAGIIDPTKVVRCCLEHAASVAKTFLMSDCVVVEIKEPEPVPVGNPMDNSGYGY

[3] = biological target: the molecule itself; assay: cross-linking; 45 µM co-chaperonin with 1 mM DSS at room temperature, 50 mM Na-HEPES pH 7.5, 10 mM MgCl2, 100 mM KCl; time course; SDS gradient gel, Coomassie
[4] = biological target: T2, Cpn20 mutant G32A (A. thaliana, UniProt O65282 51-253, G32A); assay: cell-based or functional assay
T2 sequence (looked up): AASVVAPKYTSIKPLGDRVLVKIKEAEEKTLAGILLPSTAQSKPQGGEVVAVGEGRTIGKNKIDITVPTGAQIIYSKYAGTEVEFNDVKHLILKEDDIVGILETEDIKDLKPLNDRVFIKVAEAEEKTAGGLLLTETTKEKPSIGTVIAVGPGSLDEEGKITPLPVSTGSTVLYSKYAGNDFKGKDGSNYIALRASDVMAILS

[5] = biological target: B1; assay: cell-based or functional assay

Binder: B1
binding result [1]: binds

B3: GroES (natural protein, E. coli, UniProt P0A6F9 1-97, looked up)
chain: MNIRPLHDRVIVKRKEVETKSAGGIVLTGSAAAKSTRGEVLAVGNGRILENGEVKPLDVKVGDIVIFNDGYGVKSEKIDNEEVLIMSESDILAIVEA
notes: GroES, the co-chaperonin (Cpn10) of E. coli
stoichiometry N [3]: 7

More lines, main results first:

binding result [2]: binds
B2: Cpn60α2 (natural protein)
chain: not shown
notes: additional glycine-serine at the N-terminus; Cpn60α2, A. thaliana chloroplast chaperonin α subunit, At2g28000; alanine 46 chosen as the first amino acid of the mature protein; The vector codes for an octa-histidine tag followed by a TEV site

refolding of urea-denatured MDH by Cpn60αβ, Cpn10(2) titrated on a background of 20 µM G32A; at a 0.25 ratio of [co-chaperonin]/[Cpn60αβ], against 18.06% with Cpn10(2) alone [4]: 29.1%
B4: Cpn10(2) co-chaperonin of A. thaliana (natural protein, UniProt O80504 40-139, looked up)
chain: IKAISTKWEPTKVVPQADRVLVRLEDLPIKSSGGVLLPKAAVKFERYLTGEIISVGSEVGQQVGPGKRVLFSDVSAYEVDLGTDARHCFCKESDLLALVE
notes: Cpn10(2), A. thaliana chloroplast co-chaperonin, At2g44650
stoichiometry N [3]: 7

refolding of urea-denatured MDH by 10 µM Cpn60αβ, Cpn20 titrated (0.625–20 µM) with constant 20 µM Cpn10(1); against 51.39% with Cpn20 alone (% of Cpn60αβ with mt-cpn10) [5]: 77.8% | refolding of urea-denatured MDH by GroEL with the combination of G32A and Cpn10(1), each inactive alone (% of GroEL with saturating GroES) [4]: ~75% | refolding of urea-denatured MDH by chloroplast Cpn60αβ with the combination of G32A and Cpn10(1), each inactive alone (% of Cpn60αβ with mt-cpn10) [4]: ~40%
B5: Cpn10(1) co-chaperonin of A. thaliana, lacking the N-terminal chloroplast transit peptide (natural protein, UniProt Q9M1C2 43-138, looked up)
chain: STKWEPAKVVPQADRVLVRLEVLPEKSSGGVLLPKSAVKFERYLTGEVVSVGSEVGEVEPGKKVLFSDMSAYEVDFGTEDAKHCFCKESDLLAIVQ
notes: Cpn10(1), A. thaliana chloroplast co-chaperonin, At3g60210, without the transit peptide; Serine 43 chosen as the first amino acid; Cloned between XhoI and NdeI of pET22b+; source: E. coli BL21(T7+), pET22b+, purified (Mono-Q, Superdex 200, Superdex 75)
stoichiometry N [3]: 2
